Changes are numbered by the printed parent chain.
B1: SRP2188-A02 (antibody, IgG1, V domains shown)
VH: EVQLVESGGGLVQPGGSLRLSCAASGFNIKSYDIHWVRQAPGKGLEWVGWINPEDGDTYYADSVKGRFTISADTSKNTAYLQMNSLRAEDTAVYYCARDFGVFDYWGQGTLVTVSS
VL: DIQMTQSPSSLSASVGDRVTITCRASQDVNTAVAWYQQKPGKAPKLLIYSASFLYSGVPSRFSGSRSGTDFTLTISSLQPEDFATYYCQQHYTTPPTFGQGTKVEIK
notes: IgG1 with trastuzumab LC; HIS- and FLAG-tagged; cell-free expressed
B2: SRP2188-A10 (antibody, IgG1, V domains shown)
VH: B1 VH with K30N, Y59S, Y60H, F100Y
VL: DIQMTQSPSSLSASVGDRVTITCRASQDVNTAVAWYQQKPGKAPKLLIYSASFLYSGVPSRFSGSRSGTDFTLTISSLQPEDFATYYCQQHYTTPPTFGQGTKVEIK
notes: as for B1
B3: SRP2188-C04 (antibody, IgG1, V domains shown)
VH: B1 VH with K30N, Y60H, K65R, F100Y, F103Y
VL: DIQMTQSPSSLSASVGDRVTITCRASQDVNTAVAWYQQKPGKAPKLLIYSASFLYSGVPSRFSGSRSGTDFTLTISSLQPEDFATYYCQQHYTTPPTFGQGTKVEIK
notes: as for B1
B4: SRP2188-C06 (antibody, IgG1, V domains shown)
VH: B1 VH with K30N, E54D, Y60L, F100Y
VL: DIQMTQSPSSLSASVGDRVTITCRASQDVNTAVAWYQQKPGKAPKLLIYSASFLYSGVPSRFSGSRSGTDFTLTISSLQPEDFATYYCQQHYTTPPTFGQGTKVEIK
notes: as for B1
B5: SRP2188-C11 (antibody, IgG1, V domains shown)
VH: B1 VH with E54D, Y60L, F100Y
VL: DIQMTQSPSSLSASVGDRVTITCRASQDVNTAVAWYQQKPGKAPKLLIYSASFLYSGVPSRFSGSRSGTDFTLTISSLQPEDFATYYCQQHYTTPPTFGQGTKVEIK
notes: as for B1
B6: SRP2188-D05 (antibody, IgG1, V domains shown)
VH: B1 VH with K30S, S31E, W50G, N52D, E54H, D57W, Y59D, Y60H, F100Y, F103Y
VL: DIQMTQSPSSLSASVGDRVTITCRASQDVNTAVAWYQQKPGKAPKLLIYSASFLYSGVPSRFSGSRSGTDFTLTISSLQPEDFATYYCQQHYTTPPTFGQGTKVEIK
notes: as for B1
B7: SRP2188-A11 (antibody, IgG1, V domains shown)
VH: EVQLVESGGGLVQPGGSLRLSCAASGFNISDYDIHWVRQAPGKGLEWVSLIDPKDGATDSADSVKGRFTISADTSKNTAYLQMNSLRAGDTAVYYCARDYGVFDYWGQGTLVTVSS
VL: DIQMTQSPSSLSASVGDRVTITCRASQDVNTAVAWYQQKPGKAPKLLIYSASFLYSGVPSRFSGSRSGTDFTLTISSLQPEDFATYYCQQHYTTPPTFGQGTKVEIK
notes: as for B1
B8: SRP2188-C01 (antibody, IgG1, V domains shown)
VH: B7 VH with S30I, D31S, K54H, A57S, G89E
VL: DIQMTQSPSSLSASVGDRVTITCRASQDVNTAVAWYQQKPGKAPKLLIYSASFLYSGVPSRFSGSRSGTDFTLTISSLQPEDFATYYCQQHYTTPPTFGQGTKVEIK
notes: as for B1
B9: SRP2188-C05 (antibody, IgG1, V domains shown)
VH: B7 VH with S30N, D31S, Y32F, S49G, L50G, K54R, A57S, G89E
VL: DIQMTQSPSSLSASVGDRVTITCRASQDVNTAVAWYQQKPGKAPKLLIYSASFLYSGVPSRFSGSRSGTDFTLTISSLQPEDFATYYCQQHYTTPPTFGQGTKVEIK
notes: as for B1
B10: SRP2188-B06 (antibody, IgG1, V domains shown)
VH: B1 VH with K30H, K43E, E54D, Y60H, F100Y
VL: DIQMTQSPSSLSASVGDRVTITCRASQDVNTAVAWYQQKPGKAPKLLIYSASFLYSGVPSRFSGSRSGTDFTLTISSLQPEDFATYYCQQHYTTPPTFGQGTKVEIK
notes: as for B1
B11: SRP2188-E09 (antibody, IgG1, V domains shown)
VH: B7 VH with Y32F, S49A, L50E, K54Q, A57W, D59V, S60H, G89E
VL: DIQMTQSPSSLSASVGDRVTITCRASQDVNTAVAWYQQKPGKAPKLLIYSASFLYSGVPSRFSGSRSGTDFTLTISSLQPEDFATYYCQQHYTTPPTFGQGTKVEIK
notes: as for B1
B12: SRP2188-E11 (antibody, IgG1, V domains shown)
VH: B7 VH with D31H, L50G, K54G, S60H, G89E
VL: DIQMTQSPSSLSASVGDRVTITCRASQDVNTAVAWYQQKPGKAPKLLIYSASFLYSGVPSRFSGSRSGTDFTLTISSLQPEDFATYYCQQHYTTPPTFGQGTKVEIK
notes: as for B1
B13: SRP2188-F05 (antibody, IgG1, V domains shown)
VH: B7 VH with S49G, L50G, K54R, G89E
VL: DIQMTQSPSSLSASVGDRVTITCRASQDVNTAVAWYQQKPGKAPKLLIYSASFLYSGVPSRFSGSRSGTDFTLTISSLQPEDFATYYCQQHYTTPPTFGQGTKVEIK
notes: as for B1
B14: SRP2188-E08 (antibody, IgG1, V domains shown)
VH: B7 VH with S30I, Y32F, S49G, L50G, K54Q, A57S, S60L, F68L, G89E
VL: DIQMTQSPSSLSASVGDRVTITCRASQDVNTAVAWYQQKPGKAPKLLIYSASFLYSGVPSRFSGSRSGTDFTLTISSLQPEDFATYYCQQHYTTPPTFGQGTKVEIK
notes: as for B1
B15: SRP2188-F01 (antibody, IgG1, V domains shown)
VH: B7 VH with S30R, D31Y, S49G, K54D, A57W, D59V, G89E
VL: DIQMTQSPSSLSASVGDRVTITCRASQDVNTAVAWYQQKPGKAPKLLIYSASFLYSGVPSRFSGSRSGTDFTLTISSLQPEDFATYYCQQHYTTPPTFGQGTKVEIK
notes: as for B1
B16: SRP2188-D11 (antibody, IgG1, V domains shown)
VH: B7 VH with P14T, S30R, S49G, K54D, A57S, S60E, G89E
VL: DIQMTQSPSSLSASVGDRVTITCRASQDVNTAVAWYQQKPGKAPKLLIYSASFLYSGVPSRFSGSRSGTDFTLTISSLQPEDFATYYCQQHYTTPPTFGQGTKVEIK
notes: as for B1
B17: SRP2188-G04 (antibody, IgG1, V domains shown)
VH: B7 VH with S30F, S49G, L50G, K54R, A57S, S60H, G89E, F103Y
VL: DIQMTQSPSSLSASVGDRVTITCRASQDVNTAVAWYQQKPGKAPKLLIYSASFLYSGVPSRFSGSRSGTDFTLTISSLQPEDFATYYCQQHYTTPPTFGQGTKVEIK
notes: as for B1
B18: SRP2188-F10 (antibody, IgG1, V domains shown)
VH: B7 VH with D31V, Y32F, S49G, L50G, K54N, S60H, G89E
VL: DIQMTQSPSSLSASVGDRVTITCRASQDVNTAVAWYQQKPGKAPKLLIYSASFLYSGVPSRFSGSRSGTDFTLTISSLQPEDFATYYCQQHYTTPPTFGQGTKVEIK
notes: as for B1
B19: SRP2188-B11 (antibody, IgG1, V domains shown)
VH: B1 VH with K30N, S31R, E54D, Y59F, Y60L, N77S, F100Y
VL: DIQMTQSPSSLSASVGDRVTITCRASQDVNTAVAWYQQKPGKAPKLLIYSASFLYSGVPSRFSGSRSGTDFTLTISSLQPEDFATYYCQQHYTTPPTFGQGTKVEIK
notes: as for B1
B20: SRP2188-F07 (antibody, IgG1, V domains shown)
VH: B7 VH with S49G, L50G, K54N, A57S, S60H, T78M, G89E
VL: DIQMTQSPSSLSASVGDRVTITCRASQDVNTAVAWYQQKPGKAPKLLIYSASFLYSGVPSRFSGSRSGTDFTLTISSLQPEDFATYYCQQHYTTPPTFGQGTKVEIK
notes: as for B1
B21: SRP2188-B09 (antibody, IgG1, V domains shown)
VH: B7 VH with S30N, D31S, S49G, L50V, A57W, S60H, A88T, G89E
VL: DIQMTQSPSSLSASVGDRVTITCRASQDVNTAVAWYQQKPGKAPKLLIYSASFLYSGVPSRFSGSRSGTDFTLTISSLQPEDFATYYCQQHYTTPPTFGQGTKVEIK
notes: as for B1
B22: SRP2188-C10 (antibody, IgG1, V domains shown)
VH: B1 VH with K30N, E54D, Y60H, F100Y
VL: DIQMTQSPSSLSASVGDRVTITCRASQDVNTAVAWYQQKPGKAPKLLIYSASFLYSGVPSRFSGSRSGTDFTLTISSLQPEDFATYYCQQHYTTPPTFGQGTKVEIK
notes: as for B1
B23: SRP2188-B10 (antibody, IgG1, V domains shown)
VH: B1 VH with K30N, E54H, Y60H, F100Y
VL: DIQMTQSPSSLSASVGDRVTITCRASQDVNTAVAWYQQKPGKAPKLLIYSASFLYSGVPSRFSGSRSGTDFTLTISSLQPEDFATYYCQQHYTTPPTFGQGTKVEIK
notes: as for B1
B24: SRP2188-E07 (antibody, IgG1, V domains shown)
VH: B1 VH with K30G, S31D, D33G, W50G, N52D, D57F, Y59V, Y60H, F100Y, F103Y
VL: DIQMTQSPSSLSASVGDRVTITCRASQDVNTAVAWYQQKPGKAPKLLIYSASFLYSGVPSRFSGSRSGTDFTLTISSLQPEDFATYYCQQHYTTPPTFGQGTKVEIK
notes: as for B1
B25: SRP2188-E06 (antibody, IgG1, V domains shown)
VH: B7 VH with S30G, S49G, L50G, K54E, S60I, N84D, G89E
VL: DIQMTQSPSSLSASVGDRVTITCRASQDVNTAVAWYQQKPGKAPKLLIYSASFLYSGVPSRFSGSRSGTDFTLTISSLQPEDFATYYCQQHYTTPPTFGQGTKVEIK
notes: as for B1
B26: SRP2188-E05 (antibody, IgG1, V domains shown)
VH: B7 VH with S49A, L50G, D52E, K54W, A57S, S60H, G89E
VL: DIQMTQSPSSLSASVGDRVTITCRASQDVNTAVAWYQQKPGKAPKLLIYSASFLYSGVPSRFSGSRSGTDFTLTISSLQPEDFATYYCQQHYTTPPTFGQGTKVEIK
notes: as for B1
B27: SRP2188-A08 (antibody, IgG1, V domains shown)
VH: B1 VH with K30H, S31N, Y32F, E54F, Q82R, V93A, F100Y
VL: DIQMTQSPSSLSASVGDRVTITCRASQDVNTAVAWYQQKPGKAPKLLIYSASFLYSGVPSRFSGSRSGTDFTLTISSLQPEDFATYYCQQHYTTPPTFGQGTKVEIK
notes: as for B1
B28: SRP2188-D08 (antibody, IgG1, V domains shown)
VH: B7 VH with S30R, S49V, L50G, K54D, S60E, G89E
VL: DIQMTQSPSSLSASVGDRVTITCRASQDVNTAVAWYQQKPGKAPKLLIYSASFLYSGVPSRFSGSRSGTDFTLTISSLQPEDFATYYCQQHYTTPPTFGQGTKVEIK
notes: as for B1
B29: SRP2188-F02 (antibody, IgG1, V domains shown)
VH: B7 VH with S49A, L50W, K54S, A57S, D59E, S60H, N84S, G89E
VL: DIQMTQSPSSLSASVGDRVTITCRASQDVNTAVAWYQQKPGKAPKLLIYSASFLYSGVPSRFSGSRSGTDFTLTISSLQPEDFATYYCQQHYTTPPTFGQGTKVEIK
notes: as for B1
B30: SRP2188-C08 (antibody, IgG1, V domains shown)
VH: B1 VH with Y32H, E54D, Y60H, F100Y
VL: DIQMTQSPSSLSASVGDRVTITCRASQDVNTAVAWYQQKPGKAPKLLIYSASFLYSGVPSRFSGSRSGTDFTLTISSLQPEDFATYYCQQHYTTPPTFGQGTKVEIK
notes: as for B1

Assays:
[1] = biological target: T1, human ROR1 (hROR1) expressed on cells (human, UniProt Q01973 30-937); assay: cell-based or functional assay
[2] = biological target: T1, human ROR1 (hROR1) expressed on cells; assay: flow cytometry, HCT116-hROR1 cells
[3] = biological target: T2, human ROR1-ECD (human, UniProt Q01973 30-406); assay: SPR (Biacore), antibody captured by anti-Fc, human ROR1-ECD analyte
T2 construct: Bought protein; also called hROR1; ROR1-extracellular domain
Protocol: Anti-Fc polyclonal antibodies were immobilized onto a CMS chip (GE Life Sciences) using amine coupling chemistry (from Amine Coupling Kit, GE Life Sciences). The immobilization steps were carried out at a flow rate of 25 μL/min in 1×HBS-EP+buffer (GE Life Sciences; 10× Stock diluted before use). The sensor surfaces were activated for 7 min with a mixture of NHS (0.05 M) and EDC (0.2 M). The Anti-Fc antibodies were injected over all 4 flow cells at a concentration of 25 ug/ml in 10 mM sodium acetate, pH 4.5, for 7 min. Ethanolamine (1 M, pH 8.5) was injected for 7 min to block any remaining activated groups.
Off-rate and kinetic binding experiments were performed at 25° C. using 1×HBS-EP+buffer. Test and control antibodies were injected over the anti-Fc surface at concentrations of 5-10 μg/mL for 12 seconds at a flow rate of 10 μL/min on flow cells 2, 3 and 4, followed by a buffer wash for 30 seconds at the same flow rate. […] After capturing ligand (antibody) on the anti-Fc surface, the analyte (hROR1, Fz or Kr domains, Acro Biosystems, Delaware) was bound for 180 seconds, followed by a 600 second dissociation phase at a flow rate of 50 μL/min. Between each ligand capture and analyte binding cycle, regeneration was carried out using 2 injections of 10 mM Glycine pH 2.0 for 30 seconds at 30 μL/min, followed by a 30 second buffer wash step.

| Binder | Mino Nb-PBD, drug-conjugated 2° antibody Cell Killing IC50 [1] [nM] | Mino Nb-PBD, drug-conjugated 2° antibody Cell Killing Span [1] [%] | Bmax (MFI) [2] [MFI] | Kd [2] [nM] | Kd [3] [nM] | koff [3] [s⁻¹] | kon [3] [M⁻¹ s⁻¹] |
| --- | --- | --- | --- | --- | --- | --- | --- |
| B1 | 0.0007 | 65 | 9390 | 0.03 |  |  |  |
| B2 |  |  | 9150 | 0.03 | 0.426 | 0.000222 | 522000 |
| B3 |  |  | 9500 | 0.03 | 0.139 | 0.000101 | 723000 |
| B4 |  |  | 9580 | 0.03 |  |  |  |
| B5 |  |  | 9210 | 0.04 | 0.873 | 0.000617 | 707000 |
| B6 |  |  | 9840 | 0.04 | 0.48 | 0.000359 | 747000 |
| B7 |  |  | 8340 | 0.06 | 0.354 | 0.000379 | 1.07e+06 |
| B8 |  |  | 10100 | 0.38 |  |  |  |
| B9 |  |  | 9510 | 0.06 | 0.427 | 0.000453 | 1.06e+06 |
| B10 |  |  | 9130 | 0.06 | 0.504 | 0.000467 | 927000 |
| B11 |  |  | 9780 | 0.02 |  |  |  |
| B12 |  |  | 9250 | 0.03 |  |  |  |
| B13 |  |  | 9620 | 0.04 | 0.587 | 0.00051 | 870000 |
| B14 |  |  | 9330 | 0.03 |  |  |  |
| B15 |  |  | 8660 | 0.02 | 0.546 | 0.000316 | 578000 |
| B16 |  |  | 9600 | 0.02 | 0.741 | 0.00055 | 743000 |
| B17 |  |  | 8990 | 0.02 | 0.406 | 0.000259 | 639000 |
| B18 |  |  | 8480 | 0.03 | 0.399 | 0.000399 | 1e+06 |
| B19 |  |  | 8730 | 0.04 |  |  |  |
| B20 |  |  | 9870 | 0.03 |  |  |  |
| B21 |  |  | 9420 | 0.05 | 0.657 | 0.000579 | 882000 |
| B22 |  |  | 9310 | 0.05 |  |  |  |
| B23 |  |  | 9000 | 0.04 | 0.462 | 0.000539 | 1.17e+06 |
| B24 |  |  | 7600 | 0.02 |  |  |  |
| B25 |  |  | 9970 | 0.04 | 0.438 | 0.000346 | 790000 |
| B26 |  |  | 10600 | 0.05 | 0.369 | 0.00031 | 840000 |
| B27 | 0.02 | 75 | 8130 | 0.18 |  |  |  |
| B28 |  |  | 9600 | 0.05 | 0.381 | 0.000268 | 703000 |
| B29 |  |  | 9850 | 0.03 |  |  |  |
| B30 |  |  | 8570 | 0.03 |  |  |  |

Reference: patent publication US20240058465A1 (SUTRO BIOPHARMA, published 2024)
